In patent publication US10758588 (PURDUE RESEARCH FOUNDATION, dated 2020):
* marks the point of attachment. 5FAM = O=C1OC2(c3ccc(O)cc3Oc3cc(O)ccc32)c2ccc(C(=O)*)cc21; Ahx = NCCCCCC(=O)O

Target: T1, N-terminal His-tag PCNA (recombinant (His)6-PCNA fusion protein; Proliferating Cell Nuclear Antigen) (Homo sapiens (Human), UniProt P12004 1-261)
T1 construct: Expressed in E. coli BL21 (DE3) from vector pEV-L8, which carries an N-terminal His-tag and a TEV protease site; No tag cleavage is described; also called His-tagged PCNA; recombinant PCNA
Experiment: fluorescence polarization; fixed FAM-PL (5 nM) titrated with two-fold increasing recombinant His-tagged PCNA
Source text: [a]N-substituted side chains listed from N-terminus to most C-terminal [b]as determined by high resolution electrospray ionization or MALDI-TOF [c]based on dry mass recovery after HPLC purification After synthesis and purification, peptoids were screened in a fluorescence polarization (FP) assay to find ligands that disrupted the interaction between His-tagged PCNA and fluorescein-labeled Pogo Ligase peptide (FAM-PL) (Kontopidis, G., et al. Proc. Natl. Acad. Sci. U.S.A. 2005, 102 (6), 1871-1876). In the design of the assay, conditions were adopted from Pedley et al., 2016, to improve the dynamic range between bound and unbound FAM-PL. While an acceptable Z-score was determined using the original 10 nM peptide and 100 nM PCNA (FIG. 4), an improved dynamic range was established by adjusting the ligand and receptor concentrations. […]
Increasing amounts of recombinant (His)_6-PCNA protein (SEQ ID NO: 3) were prepared in FP binding buffer (25 mM HEPES at pH 7.4, 10% glycerol, 0.01% Triton X-100), with an 11-step 2-fold dilution series, and a top concentration of 30 μM. […] Fluorescence polarization and resultant anisotropy were measured on a BioTek Synergy 4 Multi-Detection Microplate Reader using an excitation filter of 485 nm and an emission filter of 530 nm, each with a 20 nm band-pass.

T1 sequence (P12004 other isoform, or with tags, fused parts or gaps limits assumed): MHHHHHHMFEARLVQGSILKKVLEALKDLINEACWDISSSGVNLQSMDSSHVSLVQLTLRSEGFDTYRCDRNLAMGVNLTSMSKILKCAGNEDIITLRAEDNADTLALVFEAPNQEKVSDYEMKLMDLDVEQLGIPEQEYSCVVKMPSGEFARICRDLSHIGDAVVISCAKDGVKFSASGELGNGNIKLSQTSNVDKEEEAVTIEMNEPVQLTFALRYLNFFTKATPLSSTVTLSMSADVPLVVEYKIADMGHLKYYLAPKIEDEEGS

B1: 5-FAM-labeled POGO ligase peptide (FAM-PL) (peptide)
peptide: {5FAM-Ahx}-SAVLQKKITDYFHPKK-NH2
notes: also called fluorescein-labeled Pogo Ligase peptide; PL peptide
  Kd: 107 nM
